We go through ten molecules from US20240092922A1 (EUCURE BEIJING BIOPHARMA, published 2024).

In experiment [1] the target is T1, human 4-1BB (h4-1BB) on transiently transfected CHO cells (human, UniProt Q07011 24-255).
T1 construct: also called TNFRSF9; CD137
Kind of experiment: flow cytometry, CHO cells transfected with human 4-1BB, antibody at 0.1 µg/ml. In general terms: Flow cytometry measures light scatter and fluorescence of single cells or particles in a stream.
Description: (§1) 25 μl CHO cells transiently transfected with human 4-1BB were added to each well in a plate. The purified antibodies were titrated to final concentrations of 10, 1, 0.1, 0.01, 0.001 μg/ml. The titrated antibodies were added to each well at 4° C. and incubated for 30 minutes.
(§2) After being washed with phosphate-buffered saline (PBS) (1200 rpm, 5 minutes) twice, 50 μl of FITC labeled anti-mouse IgG Fc antibody (anti-mIgG Fc-FITC) at 1:100 dilution was added into each well, and incubated for 30 minutes at 4° C., followed by PBS wash (1200 rpm, 5 minutes). The signal for FITC was detected by flow cytometry.

Experiment [2] concerns the target T1, human 4-1BB (h4-1BB) on transiently …. Kind of experiment: flow cytometry, CHO cells transfected with human 4-1BB, antibody at 0.01 µg/ml.
Description: as §1, §2
Experiment [3] addresses T2, monkey (Rhesus macaque) 4-1BB (r4-1BB) on transfected CHO cells (monkey (Rhesus macaque), UniProt Q07011 24-255 (human entry)).
T2 construct: also called rm4-1BB; CHO-r4-1BB
T2 chain: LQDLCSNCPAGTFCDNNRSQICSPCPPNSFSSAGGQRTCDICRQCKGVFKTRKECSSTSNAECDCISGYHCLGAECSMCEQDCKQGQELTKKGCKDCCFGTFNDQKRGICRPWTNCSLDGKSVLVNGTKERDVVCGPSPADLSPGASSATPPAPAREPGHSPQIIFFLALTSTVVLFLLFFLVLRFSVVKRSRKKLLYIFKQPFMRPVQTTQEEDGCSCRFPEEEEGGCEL
Briefly: flow cytometry on transfected CHO cells.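 Also: antibodies tested at 1 µg/ml on CHO cells for 30 min at 4 °C, binding detected with FITC- or PE-labeled anti-mouse IgG Fc secondary by flow cytometry.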
Description: (§3) 25 μl CHO cells were added to each well. 25 μl purified anti-h4-1BB antibodies (1 μg/ml) were added to each well and were incubated at 4° C. for 30 minutes.
(§4) After being washed with PBS (1200 rmp, 5 min) twice, 50 μl of FITC labeled anti-mouse IgG Fc antibody (anti-mIgG Fc-FITC) was added into each well at 1:100 dilution, followed by incubating at 4° C. for 30 minutes, and then PBS wash (1200 rmp, 5 min). In some cases, PE labeled anti-mouse IgG Fc antibody (anti-mIgG Fc-PE) was used to label the antibody instead, and was added into each tested well at 1:500 dilution. The signals for FITC and PE were determined by flow cytometry.

Experiment [4] deals with T3, chimeric (mouse and human) 4-1BB (c4-1BB) on transfected CHO cells (chimeric (mouse and human)).
T3 construct: also called chi4-1BB; CHO-c4-1BB
Kind of experiment: flow cytometry on transfected CHO cells.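 Also: antibodies tested at 1 µg/ml on CHO cells for 30 min at 4 °C, binding detected with FITC- or PE-labeled anti-mouse IgG Fc secondary by flow cytometry.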
Description: as §3, §4

Experiment [5] deals with T1, human 4-1BB (h4-1BB) on transiently …. Briefly: flow cytometry, CHO cells transfected with human 4-1BB, antibody at 1 µg/ml.
Description: as §1, §2
For experiment [6] the target is unchanged. Briefly: flow cytometry, CHO cells transfected with human 4-1BB, antibody at 10 µg/ml.
Description: as §1, §2
Experiment [7] has as its target T4, mouse 4-1BB (m4-1BB) on transfected CHO cells (mouse, UniProt P20334 24-256).
T4 construct: also called CHO-m4-1BB
Kind of experiment: flow cytometry on CHO cells transfected with mouse 4-1BB.
Description: as §3, §4

Experiment [8] concerns the target T5, Histidine-tagged human 4-1BB protein (h4-1BB-His) (human, UniProt Q07011 24-186).
T5 construct: not shown: histidine tag
Kind of experiment: SPR (Biacore T200), antibody on Protein A chip, h4-1BB-His injected.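 Also: dissociation phase followed for 300 s, Kd derived as koff divided by kon from the kinetic fit.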

The target of experiment [9] is T1, human 4-1BB (h4-1BB) on transiently …. Briefly: flow cytometry, CHO cells transfected with human 4-1BB, antibody at 0.001 µg/ml.
Description: as §1, §2

B1: 29-6A5 (antibody, V domains shown)
VH: QVQLQQPGAELVRPGASVKLSCKASGYTFSSYWINWVKQRPGQGLEWIGNIYPSDSYTNYNQKFKDKATLTVDKSSSTAYMQLSSPTSDDSAVYYCTRTWEFYYDSVFDYWGQGTTLTVSS
VL: DIKMTQSPSSMYASLGERVTITCKASQDINSYLSWFQQKPGKSPKTLIYRANRLVDGVPSRFSGSGSGQDYSLTISSLEYEDMGIYYCLQYDELPPTFGGGTKLEIK
notes: mouse antibody purified from ascites
For B1, the “percentage of cells with FITC signal” value was 70.8% in experiment [1], 47.4% in experiment [2], 73.4% in experiment [5] and 80.5% in experiment [6]. The figures for the binding result in experiment [3], in [4] and in experiment [7] were “binds”, “binds” and “no binding (tested: 1 µg/ml)”, respectively.

B2: 6A5-H3K3-IgG2 (antibody, V domains shown)
VH: QVQLVQSGAEVKKPGSSVKLSCKASGYTFSSYWINWVKQAPGQGLEWIGNIYPSDSYTNYNQKFKDKATLTVDKSTSTAYMELSSLRSEDTAVYYCTRTWEFYYDSVFDYWGQGTTLTVSS
VL: DIQMTQSPSSLSASLGERVTITCKASQDINSYLSWFQQKPGKAPKTLIYRANRLVDGVPSRFSGSGSGQDFTLTISSLQPEDIATYYCLQYDELPPTFGGGTKVEIK
notes: humanized
By Kd is commonly meant the equilibrium constant for the complex coming apart. The term koff denotes the first-order rate constant of dissociation. As a reminder, the kon is a measure of how fast the partners come together. Regarding B2, in [8], binding was characterised by a dissociation constant (Kd) of 0.252 nM, the koff is 0.000538 s⁻¹ and the kon was 2.14e+06 M⁻¹ s⁻¹.

B3: 6A5-H3K2-IgG2 (antibody, V domains shown)
VH: QVQLVQSGAEVKKPGSSVKLSCKASGYTFSSYWINWVKQAPGQGLEWIGNIYPSDSYTNYNQKFKDKATLTVDKSTSTAYMELSSLRSEDTAVYYCTRTWEFYYDSVFDYWGQGTTLTVSS
VL: DIQMTQSPSSLSASLGERVTITCKASQDINSYLSWYQQKPGKAPKTLIYRANRLVDGVPSRFSGSGSGQDFTLTISSLQPEDIATYYCLQYDELPPTFGGGTKVEIK
notes: humanized
Consider B3, for which, in experiment [8], the Kd amounted to 0.402 nM, the off-rate (koff) was 0.000825 s⁻¹ and the kon turned out to be 2.05e+06 M⁻¹ s⁻¹.

B4: 6A5-H3K1-IgG2 (antibody, V domains shown)
VH: QVQLVQSGAEVKKPGSSVKLSCKASGYTFSSYWINWVKQAPGQGLEWIGNIYPSDSYTNYNQKFKDKATLTVDKSTSTAYMELSSLRSEDTAVYYCTRTWEFYYDSVFDYWGQGTTLTVSS
VL: DIQMTQSPSSLSASLGERVTITCKASQDINSYLSWYQQKPGKAPKLLIYRANRLVDGVPSRFSGSGSGQDFTLTISSLQPEDIATYYCLQYDELPPTFGGGTKVEIK
notes: humanized
In the case of B4, in [8], the Kd amounted to 2.78 nM, the koff was determined as 0.00181 s⁻¹ and the kon stood at 650000 M⁻¹ s⁻¹.

B5: 6A5-H2K4-IgG2 (antibody, V domains shown)
VH: QVQLVQSGAEVKKPGSSVKLSCKASGYTFSSYWINWVRQAPGQGLEWIGNIYPSDSYTNYNQKFKDRATLTVDKSTSTAYMELSSLRSEDTAVYYCTRTWEFYYDSVFDYWGQGTLVTVSS
VL: DIQMTQSPSSLSASLGERVTITCKASQDINSYLSWFQQKPGKAPKTLIYRANRLVDGVPSRFSGSGSGQDYTLTISSLQPEDIATYYCLQYDELPPTFGGGTKLEIK
notes: humanized
In the case of B5, in experiment [8], the Kd worked out at 0.26 nM, the koff was found to be 0.000581 s⁻¹ and the kon came out at 2.24e+06 M⁻¹ s⁻¹.

B6: 6A5-H3K4-IgG2 (antibody, V domains shown)
VH: QVQLVQSGAEVKKPGSSVKLSCKASGYTFSSYWINWVKQAPGQGLEWIGNIYPSDSYTNYNQKFKDKATLTVDKSTSTAYMELSSLRSEDTAVYYCTRTWEFYYDSVFDYWGQGTTLTVSS
VL: DIQMTQSPSSLSASLGERVTITCKASQDINSYLSWFQQKPGKAPKTLIYRANRLVDGVPSRFSGSGSGQDYTLTISSLQPEDIATYYCLQYDELPPTFGGGTKLEIK
notes: humanized
In [8], B6 showed a Kd of 0.4 nM, a koff of 0.000747 s⁻¹ and a kon of 1.87e+06 M⁻¹ s⁻¹.

B7: 56-2A6 (antibody, V domains shown)
VH: QIQLVQSGPELKKPGETVKISCKASGYTFTNYGMNWVKQAPGKGFKWMGWINTYTGEPTYADDFKGRFAFSLEISASTAYLQINNLKNEDTATYFCARRDYLGAMDYWGQGTSVTVSS
VL: ENVLTQSPAIMSASPGEKVTMTCRASSSVSSSYLHWYQQKSGASPKLWIYSTSNLASGVPARFSGSGSGTSYSLTISSVEAEDAATYYCQQYSAYLYTFGGGTKLEIK
notes: as for B1
B7: the “percentage of cells with FITC signal” value in experiment [1] came out at 17.1%; in [2], 0.89%; in [9], 0.25%; in [5] it was 40.9%; in experiment [6], 46.6%. Further, the figures for the binding result in experiment [4] and in experiment [7] were “binds” and “no binding (tested: 1 µg/ml)”, respectively.

B8: 45-2B3 (antibody, V domains shown)
VH: QVQLQQSGPELVKPGASVKISCKTSGYAFSTSWMNWVKQRPGQGLEWIGRIYPGDGDTDYNGRFKGKATLTADKSSSTAYLQLSSLTSVDSAVYFCARLDGYYEVFYFDYWGQGTTLTVSS
VL: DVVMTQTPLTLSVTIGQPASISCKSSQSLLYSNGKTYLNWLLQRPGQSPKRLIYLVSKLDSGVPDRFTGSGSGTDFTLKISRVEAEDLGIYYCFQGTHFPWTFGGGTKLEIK
notes: as for B1
Regarding B8, the “percentage of cells with FITC signal” value stood at 12% in [1]; 0.622% in experiment [2]; 0.504% in experiment [9]; 51.8% in experiment [5]; 62.2% in experiment [6]. Besides, the results for the binding result in experiment [3], in [4] and in [7] were “binds”, “binds” and “no binding (tested: 1 µg/ml)”, respectively.

B9: 45-4B9 (antibody, V domains shown)
VH: EVQLQQSGPELVKPGASVKMSCKASGYTFTTYVMYWVKQRPGQGLEWIGYINPYNDDIRYNEKFKGKATLTSDRSSSTAYMELSSLTSEDSAVYLCARQGGDYWGQGTILTVSS
VL: DVQITQSPSYLAASPGETITVNCRASKNINKYLAWYQEKPGKTNKLLIYSGSTLQSGIPSRFSGSGSGTDFTLTISSLEPEDFAVYHCQQYNEYPLTFGAGTKLEMK
notes: as for B1
As to B9, the “percentage of cells with FITC signal” value in experiment [1] was 10.4%; in experiment [2] it was 1.2%; in experiment [9], 1.86%; in experiment [5], 49.3%; in experiment [6], 56.2%. The binding result is “binds” in [3], “binds” in experiment [4] and “no binding (tested: 1 µg/ml)” in [7].

B10: 45-8F1 (antibody, V domains shown)
VH: EVQLQQSGTVLARPGASVKMSCKASGYSFTSYWMHWVKQRPGQGLEWIGVIYPGNSDTSYNQKFKGKAKLTAVTSASTAYMDLSSLTNEDSAVYYCTRGITTAPDYWGQGTTLTVSS
VL: NIVMTQSPKSMSMSVGERVTLSCKASENVGIHVSWYQQKPEQSPKLLIYGASSGYNGVPDRFTGSGSATDFTLTISSVQPEDLADYHCGQTYSYPFTFGSGTKLEIK
notes: as for B1
Regarding B10, the “percentage of cells with FITC signal” value stood at 43.9% in [1]; 6.21% in [2]; 1.38% in [9]; 56.1% in experiment [5]; 58.6% in experiment [6]. Moreover, the binding result in [3] was “binds”; in experiment [4] it was “binds”; in [7], “no binding (tested: 1 µg/ml)”.
